According to patent US12383631:
Where two headings read alike, the source gives them in different places.

Tests used:
[1] = biological target: T1, IL-18 receptor (IL-18Rα/IL-18Rβ) on cells (HEK-Blue IL18R reporter cells, NK-92, KG-1) (human) (UniProt Q13478); assay: cell-based or functional assay
T1 sequence (looked up) 1: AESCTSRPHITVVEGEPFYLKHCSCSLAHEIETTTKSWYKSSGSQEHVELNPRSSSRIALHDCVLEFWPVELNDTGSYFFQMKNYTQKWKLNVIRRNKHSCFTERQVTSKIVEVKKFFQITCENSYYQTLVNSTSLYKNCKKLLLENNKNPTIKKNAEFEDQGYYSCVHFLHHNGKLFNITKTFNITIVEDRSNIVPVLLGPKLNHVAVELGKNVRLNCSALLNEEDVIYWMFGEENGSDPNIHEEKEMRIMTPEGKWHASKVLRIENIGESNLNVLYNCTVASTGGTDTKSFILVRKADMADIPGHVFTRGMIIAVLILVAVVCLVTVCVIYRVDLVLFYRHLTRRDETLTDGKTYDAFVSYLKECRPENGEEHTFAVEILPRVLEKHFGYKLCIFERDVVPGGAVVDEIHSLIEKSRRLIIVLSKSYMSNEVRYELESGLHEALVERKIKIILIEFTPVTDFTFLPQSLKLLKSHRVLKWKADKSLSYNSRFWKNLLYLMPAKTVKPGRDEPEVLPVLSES
T1 sequence (looked up) 2: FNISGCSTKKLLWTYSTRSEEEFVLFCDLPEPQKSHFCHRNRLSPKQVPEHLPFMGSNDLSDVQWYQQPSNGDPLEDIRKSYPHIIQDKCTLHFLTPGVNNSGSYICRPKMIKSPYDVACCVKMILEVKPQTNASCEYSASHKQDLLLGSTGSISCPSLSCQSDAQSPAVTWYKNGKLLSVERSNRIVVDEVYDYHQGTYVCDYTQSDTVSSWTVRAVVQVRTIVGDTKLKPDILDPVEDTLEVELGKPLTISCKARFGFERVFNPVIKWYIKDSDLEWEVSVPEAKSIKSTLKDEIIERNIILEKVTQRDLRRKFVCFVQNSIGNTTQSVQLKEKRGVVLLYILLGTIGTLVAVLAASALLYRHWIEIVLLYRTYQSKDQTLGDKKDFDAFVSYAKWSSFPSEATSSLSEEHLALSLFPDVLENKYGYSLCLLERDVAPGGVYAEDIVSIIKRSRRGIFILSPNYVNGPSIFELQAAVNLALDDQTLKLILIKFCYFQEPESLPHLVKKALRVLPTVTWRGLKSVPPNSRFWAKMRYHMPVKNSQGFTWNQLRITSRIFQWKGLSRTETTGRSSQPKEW

[2] = biological target: recombinant Human Fc gamma RIIIA/CD16a Protein (R&D systems, 4325-FC-050) (human) (UniProt P08637); assay: ELISA; immunocytokine coated, receptor titrated, anti-His-HRP
[3] = biological target: recombinant Human Fc gamma RI/CD64 Protein (R&D systems, 1257-FC-050) (human) (UniProt P12314); assay: as above
[4] = biological target: recombinant Human Fc gamma RIIA/CD32a (H167) Protein (R&D systems, 9595-CD-050) (human) (UniProt P12318); assay: as above
[5] = biological target: recombinant Human Fc gamma RIIB/CD32b Avi-tag Protein (R&D systems, AVI1875-050) (human) (UniProt P31994); assay: as above
[6] = biological target: human PD-1 on Jurkat T effector cells (human) (UniProt Q15116)
[7] = biological target: recombinant Human Fc gamma RI/CD64 Protein (R&D systems, 1257-FC-050) (human) (UniProt P12314); assay: ELISA: immunocytokine coated on the plate (2.5 ug/ml), His-tagged recombinant human Fc gamma RI/CD64 titrated in solution (x-axis), anti-His-HRP/TMB, 450 nm
[8] = biological target: human IL-18BP-His (human) (UniProt O95998); assay: AlphaLISA of free (unbound) IL-18BP: immunocytokine titrated (x-axis) and pre-incubated with human IL-18BP-His; anti-IL-18BP acceptor beads, biotinylated anti-IL-18BP antibody, streptavidin donor beads; the signal falls as IL-18BP is bound
[9] = biological target: human IL-18BP-His (human) (UniProt O95998); assay: AlphaLISA of free IL-18BP after incubation with IL-18BP-His
[10] = biological target: recombinant biotinylated human FcRn (human) (UniProt P55899); assay: AlphaLISA competition at pH 6; competitor: human IgG on acceptor beads
[11] = biological target: recombinant Human Fc gamma RI/CD64 Protein (R&D systems, 1257-FC-050) (human) (UniProt P12314); assay: ELISA: antibody coated on the plate (2.5 ug/ml), His-tagged recombinant human Fc gamma RI/CD64 titrated in solution (x-axis), anti-His-HRP/TMB, 450 nm
[12] = biological target: recombinant biotinylated human FcRn (human) (UniProt P55899); assay: FcRn competition AlphaLISA at pH 6: test antibody titrated (x-axis) against human IgG-coated acceptor beads (reference IgG) for biotinylated human FcRn on streptavidin donor beads; loss of signal
[13] = biological target: recombinant Human Fc gamma RIIIA/CD16a Protein (R&D systems, 4325-FC-050) (human) (UniProt P08637); assay: ELISA; antibody coated, receptor titrated, anti-His-HRP
[14] = biological target: recombinant Human Fc gamma RI/CD64 Protein (R&D systems, 1257-FC-050) (human) (UniProt P12314); assay: as above
[15] = biological target: recombinant Human Fc gamma RIIA/CD32a (H167) Protein (R&D systems, 9595-CD-050) (human) (UniProt P12318); assay: as above
[16] = biological target: recombinant Human Fc gamma RIIB/CD32b Avi-tag Protein (R&D systems, AVI1875-050) (human) (UniProt P31994); assay: as above
[17] = biological target: human PD-1 on Jurkat T effector cells (human) (UniProt Q15116); remark: listed apart in the source

Chain of recombinant Human Fc gamma RI/CD64 Protein (R&D systems, 1257-FC-050) (human) (P12314 16-288 limits assumed): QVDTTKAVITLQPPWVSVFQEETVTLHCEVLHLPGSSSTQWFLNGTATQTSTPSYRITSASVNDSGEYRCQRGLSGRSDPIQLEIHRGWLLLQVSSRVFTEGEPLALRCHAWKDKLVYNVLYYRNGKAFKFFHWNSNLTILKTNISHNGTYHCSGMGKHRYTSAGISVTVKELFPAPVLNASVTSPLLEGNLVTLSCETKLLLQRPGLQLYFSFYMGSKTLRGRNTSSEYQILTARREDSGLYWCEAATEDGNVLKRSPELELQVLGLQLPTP
Chain of recombinant Human Fc gamma RIIIA/CD16a Protein (R&D systems, 4325-FC-050) (human) (P08637 17-208 limits assumed): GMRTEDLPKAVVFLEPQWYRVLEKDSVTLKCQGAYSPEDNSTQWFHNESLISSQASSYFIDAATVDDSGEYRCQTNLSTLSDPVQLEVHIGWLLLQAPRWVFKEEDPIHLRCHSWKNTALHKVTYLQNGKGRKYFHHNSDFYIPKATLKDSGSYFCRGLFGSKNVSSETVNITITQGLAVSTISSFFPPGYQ
Chain of human IL-18BP-His (human) (O95998 31-194 limits assumed): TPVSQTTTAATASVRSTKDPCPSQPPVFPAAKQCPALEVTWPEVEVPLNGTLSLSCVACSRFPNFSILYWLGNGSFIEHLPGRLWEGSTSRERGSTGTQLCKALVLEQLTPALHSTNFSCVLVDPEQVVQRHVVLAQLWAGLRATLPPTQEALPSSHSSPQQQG
Chain of recombinant Human Fc gamma RIIB/CD32b Avi-tag Protein (R&D systems, AVI1875-050) (human) (P31994 46-217 limits assumed): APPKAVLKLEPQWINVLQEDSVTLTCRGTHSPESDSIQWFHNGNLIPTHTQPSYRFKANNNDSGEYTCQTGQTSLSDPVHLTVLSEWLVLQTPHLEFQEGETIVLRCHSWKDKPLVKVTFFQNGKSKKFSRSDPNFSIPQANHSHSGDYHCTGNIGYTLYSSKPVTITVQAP
Chain of recombinant Human Fc gamma RIIA/CD32a (H167) Protein (R&D systems, 9595-CD-050) (human) (P12318 36-218 limits assumed): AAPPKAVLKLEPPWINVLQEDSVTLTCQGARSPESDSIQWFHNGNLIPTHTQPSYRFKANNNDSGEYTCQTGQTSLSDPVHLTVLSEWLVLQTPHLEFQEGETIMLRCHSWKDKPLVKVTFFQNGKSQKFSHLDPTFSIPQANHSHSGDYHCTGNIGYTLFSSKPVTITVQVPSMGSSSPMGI
Chain of human PD-1 on Jurkat T effector cells (human) (Q15116 25-288 limits assumed): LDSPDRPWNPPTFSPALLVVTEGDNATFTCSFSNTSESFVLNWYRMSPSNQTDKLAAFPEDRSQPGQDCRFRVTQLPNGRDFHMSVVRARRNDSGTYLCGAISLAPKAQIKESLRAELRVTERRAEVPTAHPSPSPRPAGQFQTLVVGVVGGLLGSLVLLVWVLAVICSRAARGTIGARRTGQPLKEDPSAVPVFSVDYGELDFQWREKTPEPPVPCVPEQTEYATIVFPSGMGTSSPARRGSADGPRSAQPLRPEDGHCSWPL
Chain of LZM-009 (antibody) (VH): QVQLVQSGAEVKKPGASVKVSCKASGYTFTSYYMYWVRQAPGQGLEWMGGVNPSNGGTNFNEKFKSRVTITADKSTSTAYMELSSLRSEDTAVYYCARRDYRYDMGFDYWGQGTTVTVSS
Chain of LZM-009 (antibody) (VL): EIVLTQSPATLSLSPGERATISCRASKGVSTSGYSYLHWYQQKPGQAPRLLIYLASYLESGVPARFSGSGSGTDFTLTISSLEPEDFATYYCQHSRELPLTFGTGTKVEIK

Row | EC50, IFNγ secretion, NK92 cells [1] [nM] | EC50, IFNγ secretion, PD-1 positive KG-1 cells [1] [pM] | EC50, IFNγ secretion, parental KG-1 cells [1] [nM] | Kd [2] [nM] | Kd [3] [nM] | Kd [4] [nM] | Kd [5] [nM] | EC50 (read off the curve), NFAT-RE luciferase signal (PD-1/PD-L1 Blockade Bioassay) [6] [nM] | EC50 (read off the curve) [7] [nM] | IC50 (read off the curve) [8] [nM] | Kd [9] [nM] | Kd [10] [nM] | EC50 (read off the curve) [11] [nM] | IC50 (read off the curve) [12] [nM] | Kd [13] [nM] | Kd [14] [nM] | Kd [15] [nM] | Kd [16] [nM] | EC50 (read off the curve), NFAT-RE luciferase signal (PD-1/PD-L1 Blockade Bioassay) [17] [nM] | Substance
1 | 0.073 | 1.2 | 0.011 | 598 | 0.25 | 1890 | 436 | 3 | 0.3 |  |  |  |  |  |  |  |  |  |  | Composition A (LZM-009 conjugated to IL-18 polypeptide of SEQ ID NO: 30) (from UniProt Q14116 37-193)
2 | 0.027 | 9.6 | 0.0166 | 3300 |  |  |  |  |  | 10 | 10.5 |  |  |  |  |  |  |  |  | Composition C (Trastuzumab/Herceptin conjugated to IL-18 polypeptide of SEQ ID NO: 30)
3 |  |  |  |  |  |  |  |  |  |  |  | 6 | 0.2 | 5 | 1710 | 0.315 | 1350 | 2630 | 2 | LZM-009 (antibody)
